This is an account of results in publication PMC6201271.

The target in this experiment is UvrDΔCys(A100C) labeled with Cy3 (E. coli) (UniProt P03018). Briefly: AUC.

The substance “E. coli MutL protein (from UniProt P23367 1-615) (natural protein)” showed a stoichiometry N (MutL dimer per UvrD-Cy3 monomer) of 1.
